In publication PMC10164062 (Cancer discovery, 2023):

Target: the molecule itself
Assay: cross-linking

B1: p53R245W (mouse, DNA binding domain mutant) (natural protein, mouse (endogenous in MEFs), UniProt P02340 1-390, looked up)
chain: MTAMEESQSDISLELPLSQETFSGLWKLLPPEDILPSPHCMDDLLLPQDVEEFFEGPSEALRVSGAPAAQDPVTETPGPVAPAPATPWPLSSFVPSQKTYQGNYGFHLGFLQSGTAKSVMCTYSPPLNKLFCQLAKTCPVQLWVSATPPAGSRVRAMAIYKKSQHMTEVVRRCPHHERCSDGDGLAPPQHLIRVEGNLYPEYLEDRQTFRHSVVVPYEPPEAGSEYTTIHYKYMCNSSCMGGMNWRPILTIITLEDSSGNLLGRDSFEVRVCACPGRDRRTEEENFRKKEVLCPELPPGSAKRALPTCTSASPPQKKKPLDGEYFTLKIRGRKRFEMFRELNEALELKDAHATEESGDSRAHSSYLKTKKGQSTSRHKKTMVKKVGPDSD
stoichiometry N: 4
